{
  "source": "patent US20220298215A1",
  "biological_target": "glucagon-like peptide 1 (GLP-1) receptor",
  "sequence (P43220 24-463)": "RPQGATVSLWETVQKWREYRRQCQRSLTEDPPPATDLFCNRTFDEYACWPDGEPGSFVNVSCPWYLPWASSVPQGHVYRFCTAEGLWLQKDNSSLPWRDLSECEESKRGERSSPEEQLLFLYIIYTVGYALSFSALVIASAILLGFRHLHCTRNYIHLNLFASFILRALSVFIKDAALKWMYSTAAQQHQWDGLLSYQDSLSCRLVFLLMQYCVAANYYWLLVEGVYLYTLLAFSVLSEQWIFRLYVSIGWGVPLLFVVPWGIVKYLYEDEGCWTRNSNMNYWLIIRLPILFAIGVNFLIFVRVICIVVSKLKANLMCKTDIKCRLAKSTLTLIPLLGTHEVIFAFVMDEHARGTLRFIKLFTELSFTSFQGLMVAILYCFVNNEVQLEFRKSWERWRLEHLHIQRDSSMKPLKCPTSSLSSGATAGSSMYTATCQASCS",
  "assay": "cell-based or functional assay",
  "data": [
    {"substance": "Dulaglutide (Fc fusion)", "values": [
      {"measurement": "EC50, CRE-luciferase reporter in HEK293-GLP1R-CRE-Luc cells", "value": 0.0237, "unit": "nM"}
    ]}
  ]
}
